From the supplement of paper PMC10567573

B1: MGC16075 (parent)
chain: AGSRQALSFEVPPCNYDPEKWIQ
B2: EHMT1 (parent)
chain: FHKDCASRVNNASYCPHCGEESSK

Variants of: B1
Test: protein stability index of a GFP-peptide fusion (GPS, HEK-293T) (PSI 1-6); higher = more stable
Conditions: c terminus: native
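Also: lentivirally expressed fusions sorted by FACS into six bins by GFP to DsRed ratio, PSI derived from sequencing read proportions per bin multiplied by bin number.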

Protein stability index, by site and new letter:
E19: C 1.76; P 2.28; G 2.16; L 3.01; F 2.33; S 2.2; Q 2.72; V 1.86; K 3.27; Y 2.07; M 1.52; D 2.54; W 2.47; T 1.97; I 1.84; H 2.64; R 2.14; A 1.22
D17: Q 2.18; M 1.9; L 1.81; T 1.92; V 2; N 1.51; S 1.49; P 1.74; W 1.91; R 2.15; Y 2.15
Q23: P 4.37; V 4.81; N 2.83; G 3.04; I 2.43; M 1.82; E 1.97; D 1.34; K 1.91; W 1.24; H 2.55; Y 2; F 2.23
W21: A 2.33; L 2.17; N 2.42; Q 2.83; V 2.88; K 3.53; D 3.28; H 2.32; M 3.23; R 2.16; P 5.2; I 4.03; F 2.89
I22: N 4.99; P 4.72; F 4.43; V 2.75; T 4.85; G 5.11; K 4.72; S 5.03; A 4.22; E 4.4; W 3.22; Q 4.78; C 4.56; M 4.14; H 4.62; D 4.97; Y 2.85; L 3.92
P18: S 1.78; F 1.6; C 2.3; L 2.72; D 1.93; H 1.84; I 1.92; K 1.79; W 1.1; R 2.36; M 1.91; N 2.15; Y 1.87; T 1.82; G 2.41; V 1.99; Q 2.03; A 1.62; E 2.79
K20: N 3.71; R 1.98; A 3.93; F 3.49; W 3.58; P 4.17; D 4.29; T 3.33; I 2.46; V 1.96; G 3.9; Y 3.78; C 2.26; Q 4.32; S 3.77; H 3.7; M 2.69

Variants of: B2
Test: as above
Conditions: c terminus: a fixed tail appended

Protein stability index, by site and new letter:
A12: E 3.81; K 3.36; F 2.48; R 3.33; S 3.29; H 3.22; N 3.37; P 3.25; D 4.27; G 4.34; I 2.95; Q 3.96; T 3.31; M 3.24; C 3.35; L 3.06
K3: Y 2.61; Q 2.27; N 2.69; W 1.78; C 4.57; H 2.9; S 2.01; P 2.22; D 3.47; A 2.58; V 2.92; I 2.7; G 2.73; R 2.57; L 2.57; F 1.92; E 3.83; T 2.45; M 2.29
C5: M 2.46; A 2.53; D 3.19; H 2.3; Q 2.25; K 2.13; R 2.36; E 2.82; S 2.56; W 2.55; P 1.77; G 2.52; Y 2.25; I 2.42; T 2.25; L 2.4; F 2.72; N 2.61; V 2.59
R8: A 3.78; P 3.37; V 3.34; M 3.37; W 1.91; T 3.1; G 3.97; K 3.46; F 2.35; L 3.39; H 4.23; S 3.49; N 3.94; D 3.43; Y 2.63; C 3.66; Q 3.59; I 3.94; E 2.86
V9: L 3.73; A 3.47; M 3.37; N 3.39; C 4.31; W 2.31; Y 3.21; T 3.73; F 2.92; Q 3.74; R 3.63; H 4.71; S 3.79; P 3.84; E 3.87; K 3.66; I 3.65; G 4.14; D 3.94
D4: G 2.56; K 2.59; T 2.47; Q 2.73; W 1.96; R 2.3; C 4.12; L 2; V 2.41; P 1.88; F 2.04; Y 2.02; E 3.55; I 2.56; N 3.3; H 2.84; S 3.12; M 1.83; A 3.16
N11: H 3.82; Y 2.68; S 3.08; F 2.48; G 3.37; Q 3.47; E 3.46; R 3.47; P 3.25; L 2.53; A 2.91; C 3.21; V 3.12; D 3.64; M 3.36; W 1.89; K 3.54; T 3.21; I 2.22
F1: S 4.77; M 4.9; Y 3.85; P 4.43; Q 5.09; V 4.78; N 4.87; H 5.16; W 4.02; E 5.17; G 5.15; A 4.71; C 5.43; K 4.62; D 4.77; T 4.43; L 4.78; R 4.59; I 4.55
S7: L 3.44; Q 3.23; M 3.54; A 3.71; N 2.83; W 2.76; G 3.47; V 3.72; Y 2.12; H 4.18; D 3.23; P 2.87; K 4.04; R 3.97; I 3.54; F 2.16; E 3.54; C 4.27; T 3.28
N10: D 3.9; L 3.31; K 3.1; R 2.99; P 3.33; E 3.69; C 3.75; S 3.24; G 3.74; T 3.03; A 3.6; H 3.94; Q 3.52; M 2.98; Y 1.95; F 2.82; V 2.92; W 2.37; I 3.08
A6: K 3.53; P 3.83; H 3.34; N 3.41; E 3.6; M 3.07; L 2.85; D 3.52; I 3.23; F 2.28; W 1.96; G 3.59; V 3.5; Y 2.26; Q 4.04; C 4.35; T 3.6; R 2.97; S 3.52
H2: F 3.27; M 3.45; K 4.17; V 1.96; I 2.08; S 3.1; Q 3.1; L 3.58; T 3; G 3.6; R 3.65; D 4.8; Y 3.69; C 5.31; A 2.61; P 3.37; N 4.18; E 4.62; W 2.62
